Experimental data as given in US20220089761A1.

Target: CD20 receptor on WIL2-S cell line (human) (UniProt P11836)
Assay: flow cytometry on WIL2-S cells, detection with anti-human Fc-PE

UniProt P11836, sequence (P11836 whole entry): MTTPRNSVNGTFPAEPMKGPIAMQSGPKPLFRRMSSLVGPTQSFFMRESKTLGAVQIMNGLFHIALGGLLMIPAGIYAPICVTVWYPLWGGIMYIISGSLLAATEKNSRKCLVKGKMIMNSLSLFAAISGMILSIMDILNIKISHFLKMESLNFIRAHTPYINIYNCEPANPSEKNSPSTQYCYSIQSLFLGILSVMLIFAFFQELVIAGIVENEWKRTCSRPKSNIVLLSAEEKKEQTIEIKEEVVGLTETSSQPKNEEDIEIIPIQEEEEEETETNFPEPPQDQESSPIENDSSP

EC50 (read off the curve): 1 µg/mL
Substance: MabThera (Rituximab) (antibody)
